# B1: Myc-Mal-TIR wild type (TIR domain of human MyD88 adaptor-like protein, residues 79-221, double-tagged with His6 and Myc) [human] / GST-TLR4-TIR (TIR domain of human TLR4, residues 670-839, GST fusion) [human] (parent complex)
# chain 1: SSRWSKDYDVCVCHSEEDLVAAQDLVSYLEGSTASLRCFLQLRDATPGGAIVSELCQALSSSHCRVLLITPGFLQDPWCKYQMLQALTEAPGAEGCTIPLLSGLSRAAYPPELRFMYYVDGRGPDGGFRQVKEAVMRYLQTLS
# chain 2: GENIYDAFVIYSSQDEDWVRNELVKNLEEGVPPFQLCLHYRDFIPGVAIAANIIHEGFHKSRKVIVVVSQHFIQSRWCIFEYEIAQTWQFLSSRAGIIFIVLQKVEKTLLRQQVELYRLLSRNTYLEWEDSVLGRHIFWRRLRKALLDGKSWNPEGTVGTGCNWQEATSI
# B2: Myc-Mal-TIR wild type (TIR domain of human MyD88 adaptor-like protein, residues 79-221, double-tagged with His6 and Myc) [human] / GST-MyD88-TIR (TIR domain of human MyD88, residues 148-296, GST fusion) [human] (parent complex)
# chain 1: B1 chain 1
# chain 2: TTLDDPLGHMPERFDAFICYCPSDIQFVQEMIRQLEQTNYRLKLCVSDRDVLPGTCVWSIASELIEKRCRRMVVVVSDDYLQSKECDFQTKFALSLSPGAHQKRLIPIKYKAMKKEFPSILRFITVCDYTNPCTKSWFWTRLAKALSLP
# Variants of: B1
# Assay: GST pull-down, quantified Western blot; n = 3 separate experiments; parent: 1; read off a plot
row,Variant,ratio to parent
1,chain 1 SSRWSKDYDVCVCHSEEDLVAAQDLVSYLEGSTASLRCALQLRDATPGGAIVSELCQALSSSHCRVLLITPGFLQDPWCKYQMLQALTEAPGAEGCTIPLLSGLSRAAYPPELRFMYYVDGRGPDGGFRQVKEAVMRYLQTLS,~0.24
2,chain 1 SSRWSKDYDVCVCHSEEDLVAAQDLVSYLAGSTASLRCFLQLRDATPGGAIVSELCQALSSSHCRVLLITPGFLQDPWCKYQMLQALTEAPGAEGCTIPLLSGLSRAAYPPELRFMYYVDGRGPDGGFRQVKEAVMRYLQTLS,~0.39

# Variants of: B2
# Assay: as above
row,Variant,ratio to parent
1,chain 1 F39A,~0.42
2,chain 1 E30A,~0.76
